In test [1] the target is recombinant HCIQ2c1 Kunitz-type peptide from Heteractis crispa (Heteractis crispa). Kind of test: SPR; Biacore 3000; peptides covalently immobilised on a CM4 chip (970 RU rHCIQ2c1, 460 RU rHCIQ4c7); proteinases 1 nM to 5 μM flowed over; 25 °C; HBS: 0.15 M NaCl, 0.01 M HEPES, pH 7.4. For orientation: In SPR one partner is held on a chip, and binding of the other changes the refractive index at the surface.

Test [2] has the same target. As to the kind of experiment: SPR; rHCIQ2c1 immobilised on a CM4 chip; temperature range of 10–40 °С at an interval of 5 °С; enthalpy from the temperature dependence of ΔG (Van't Hoff diagram).

pKd: −log10 of the molar value.

In general, pKd refers to −log10 of the Kd, conventionally taken in molar units. Usually koff stands for the rate constant with which the complex falls apart. As a reminder, the kon is the rate constant with which the complex forms.

recombinant HCIQ2c1 Kunitz-type peptide from Heteractis crispa (Heteractis crispa), sequence (A0A6B7FBD3 28-85): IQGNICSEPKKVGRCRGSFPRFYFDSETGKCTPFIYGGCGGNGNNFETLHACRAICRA

On to “cathepsin G (from UniProt P08311 21-244) (enzyme)”, for which, in test [1], the Ka turned out to be 3.58e+09 M⁻¹, the pKd is 9.55, the koff amounted to 0.000359 s⁻¹ and the kon is 1.29e+06 M⁻¹ s⁻¹.

As to α-chymotrypsin (enzyme), the dH in test [2] came to 4.68 kcal/mol. Also, in test [1], the Ka was determined as 1.03e+07 M⁻¹, the pKd is 7.01, the koff was 0.00749 s⁻¹ and the kon is 76900 M⁻¹ s⁻¹.

The values are drawn from PMC7060258.
